This test addresses T1, human GPC3 (human, UniProt P51654 25-563).
T1 construct: range 25-563; soluble analyte; also called soluble human GPC3; glypican 3
Put plainly: SPR.

T1 sequence (P51654 25-563 limits assumed): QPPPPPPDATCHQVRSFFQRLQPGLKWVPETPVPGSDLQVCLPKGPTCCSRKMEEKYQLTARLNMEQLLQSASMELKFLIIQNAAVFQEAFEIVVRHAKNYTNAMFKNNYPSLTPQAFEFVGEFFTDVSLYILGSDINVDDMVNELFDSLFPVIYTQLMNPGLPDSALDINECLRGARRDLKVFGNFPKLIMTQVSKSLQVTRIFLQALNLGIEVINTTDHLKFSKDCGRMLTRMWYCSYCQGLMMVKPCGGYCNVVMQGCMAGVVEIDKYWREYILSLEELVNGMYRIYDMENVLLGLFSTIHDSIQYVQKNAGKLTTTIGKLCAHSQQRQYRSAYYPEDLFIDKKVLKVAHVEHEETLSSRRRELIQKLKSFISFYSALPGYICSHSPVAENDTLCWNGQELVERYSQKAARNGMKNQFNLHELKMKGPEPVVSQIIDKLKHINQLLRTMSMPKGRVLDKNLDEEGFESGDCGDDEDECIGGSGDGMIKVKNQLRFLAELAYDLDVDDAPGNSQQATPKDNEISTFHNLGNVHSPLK

B1: H0610-G1dh/none-Hi-Kn010G3/L0269-k0 (antibody, V domains shown)
VH: QVQLVQSGAEVKKPGASVKVSCKASGYTFTDYEMHWIRQPPGQGLEWIGAIDGKTPDTAYSQKFKGRVTLTADKSTSTAYMELSSLTSEDTAVYYCTRFYSYTYWGQGTLVTVSS
VL: DIVMTQSPLSLPVTPGEPASISCRSSQSPVHSNRNTYIQWYQQKPGQAPRLLIYKVSNRFSGVPDRFSGSGSGTDFTLKISRVEAEDVGVYYCGQGTQVPYTFGQGTKLEIK
notes: one-arm
B1 yielded a dissociation constant Kd of 0.459 nM.

B2: GCH025-G1dh/none-Hi-Kn010G3/L0000-k0 (antibody, V domains shown)
VH: QVQLVQSGAEVKKPGASVTVSCKASGYTFTDYEMHWIRQPPGEGLEWIGAIDGETPDTAYSQKFKGRVTLTADKSTSTAYMELSSLTSEDTAVYYCTRFYSYTYWGQGTLVTVSS
VL: DIVMTQSPLSLPVTPGEPASISCRSSQSLVHSNRNTYLHWYQQKPGQAPRLLIYKVSNRFSGVPDRFSGSGSGTDFTLKISRVEAEDVGVYYCGQGTQVPYTFGQGTKLEIKR
notes: one-arm
B2: the Kd came to 5.05 nM.

B3: H0610-G1dh/none-Hi-Kn010G3/TR01L008-k0 (antibody, V domains shown)
VH: QVQLVQSGAEVKKPGASVKVSCKASGYTFTDYEMHWIRQPPGQGLEWIGAIDGKTPDTAYSQKFKGRVTLTADKSTSTAYMELSSLTSEDTAVYYCTRFYSYTYWGQGTLVTVSS
VL: DIVMTQSPLSLPVTPGEPASISCQASESLVHSNRNTYLHWYQQKPGQAPRLLIYKVSNRFRGVPDRFSGSGSGTDFTLKISRVEAEDVGVYYCGQGTQVPYTFGQGTKLEIK
notes: one-arm
Regarding B3, binding was put at a Kd of 3.48 nM.

B4: H0610-G1dh/none-Hi-Kn010G3/TR01L020-k0 (antibody, V domains shown)
VH: QVQLVQSGAEVKKPGASVKVSCKASGYTFTDYEMHWIRQPPGQGLEWIGAIDGKTPDTAYSQKFKGRVTLTADKSTSTAYMELSSLTSEDTAVYYCTRFYSYTYWGQGTLVTVSS
VL: DIVMTQSPLSLPVTPGEPASISCQASESPVHSNRNTYIQWYLQKPGQSPQLLIYKVSNRFSGVPDRFSGSGSGTDFTLKISRVEAEDVGVYYCYQGTQVPYTFGQGTKLEIK
notes: one-arm
B4 showed a dissociation constant Kd of 0.0224 nM.

B5: H0610-G1dh/none-Hi-Kn010G3/TR01L016-k0 (antibody, V domains shown)
VH: QVQLVQSGAEVKKPGASVKVSCKASGYTFTDYEMHWIRQPPGQGLEWIGAIDGKTPDTAYSQKFKGRVTLTADKSTSTAYMELSSLTSEDTAVYYCTRFYSYTYWGQGTLVTVSS
VL: DIVMTQSPLSLPVTPGEPASISCRSSQSPVHSNRNTYLHWYLQKPGQSPQLLIYKVSNRFSGVPDRFSGSGSGTDFTLKISRVEAEDVGVYYCYQGTQVPYTFGQGTKLEIK
notes: one-arm
With B5, the affinity, expressed as Kd, was 1.08 nM.

B6: H0610-G1dh/none-Hi-Kn010G3/TR01L010-k0 (antibody, V domains shown)
VH: QVQLVQSGAEVKKPGASVKVSCKASGYTFTDYEMHWIRQPPGQGLEWIGAIDGKTPDTAYSQKFKGRVTLTADKSTSTAYMELSSLTSEDTAVYYCTRFYSYTYWGQGTLVTVSS
VL: DIVMTQSPLSLPVTPGEPASISCRSSQSLVHSNRNTYLHWYQQKPGQAPRLLIYKVSNRFRGVPDRFSGSGSGTDFTLKISRVEAEDVGVYYCGQGTQVPYTFGQGTKVEIE
notes: one-arm
B6 gave a Kd of 2.92 nM.

B7: H0610-G1dh/none-Hi-Kn010G3/TR01L011-k0 (antibody, V domains shown)
VH: QVQLVQSGAEVKKPGASVKVSCKASGYTFTDYEMHWIRQPPGQGLEWIGAIDGKTPDTAYSQKFKGRVTLTADKSTSTAYMELSSLTSEDTAVYYCTRFYSYTYWGQGTLVTVSS
VL: DIVMTQSPLSLPVTPGEPASISCQASESLVHSNRNTYLHWYQQKPGQAPRLLIYKVSNRFRGVPDRFSGSGSGTDFTLKISRVEAEDVGVYYCGQGTQVPYTFGQGTKVEIE
notes: one-arm
For B7, the dissociation constant Kd amounted to 4.02 nM.

B8: H0610-G1dh/none-Hi-Kn010G3/TR01L015-k0 (antibody, V domains shown)
VH: QVQLVQSGAEVKKPGASVKVSCKASGYTFTDYEMHWIRQPPGQGLEWIGAIDGKTPDTAYSQKFKGRVTLTADKSTSTAYMELSSLTSEDTAVYYCTRFYSYTYWGQGTLVTVSS
VL: DIVMTQSPLSLPVTPGEPASISCRSSQSPVHSNRNTYLHWYLQKPGQSPQLLIYKVSNRFSGVPDRFSGSGSGTDFTLKISRVEAEDVGVYYCGQGTQVPYTFGQGTKLEIK
notes: one-arm
With B8, the affinity, expressed as Kd, was 2.16 nM.

B9: H0610-G1dh/none-Hi-Kn010G3/TR01L005-k0 (antibody, V domains shown)
VH: QVQLVQSGAEVKKPGASVKVSCKASGYTFTDYEMHWIRQPPGQGLEWIGAIDGKTPDTAYSQKFKGRVTLTADKSTSTAYMELSSLTSEDTAVYYCTRFYSYTYWGQGTLVTVSS
VL: DIVMTQSPLSLPVTPGEPASISCRSSQSLVHSNRNTYLHWYLQKPGQSPQLLIYKVSNRFSGVPDRFSGSGSGTDFTLKISRVEAEDVGVYYCGQGTQVPYTFGQGTKVEIE
notes: one-arm
On to B9, for which the Kd came out at 5.37 nM.

B10: H0610-G1dh/none-Hi-Kn010G3/TR01L018-k0 (antibody, V domains shown)
VH: QVQLVQSGAEVKKPGASVKVSCKASGYTFTDYEMHWIRQPPGQGLEWIGAIDGKTPDTAYSQKFKGRVTLTADKSTSTAYMELSSLTSEDTAVYYCTRFYSYTYWGQGTLVTVSS
VL: DIVMTQSPLSLPVTPGEPASISCQASESPVHSNRNTYLHWYLQKPGQSPQLLIYKVSNRFSGVPDRFSGSGSGTDFTLKISRVEAEDVGVYYCGQGTQVPYTFGQGTKLEIK
notes: one-arm
Regarding B10, the Kd stood at 2.17 nM.

B11: H0610-G1dh/none-Hi-Kn010G3/TR01L017-k0 (antibody, V domains shown)
VH: QVQLVQSGAEVKKPGASVKVSCKASGYTFTDYEMHWIRQPPGQGLEWIGAIDGKTPDTAYSQKFKGRVTLTADKSTSTAYMELSSLTSEDTAVYYCTRFYSYTYWGQGTLVTVSS
VL: DIVMTQSPLSLPVTPGEPASISCRSSQSPVHSNRNTYIQWYLQKPGQSPQLLIYKVSNRFSGVPDRFSGSGSGTDFTLKISRVEAEDVGVYYCYQGTQVPYTFGQGTKLEIK
notes: one-arm
Regarding B11, binding was characterised by a dissociation constant (Kd) of 0.00827 nM.

B12: H0610-G1dh/none-Hi-Kn010G3/TR01L003-k0 (antibody, V domains shown)
VH: QVQLVQSGAEVKKPGASVKVSCKASGYTFTDYEMHWIRQPPGQGLEWIGAIDGKTPDTAYSQKFKGRVTLTADKSTSTAYMELSSLTSEDTAVYYCTRFYSYTYWGQGTLVTVSS
VL: DIVMTQSPLSLPVTPGEPASISCRSSQSLVHSNRNTYLHWYQQKPGQAPRLLIYKVSNRFSGVPDRFSGSGSGTDFTLKISRVEAEDVGVYYCGQGTQVPYTFGQGTKVEIE
notes: one-arm
The molecule B12 displayed an equilibrium dissociation constant (Kd) of 5.08 nM.

B13: H0610-G1dh/none-Hi-Kn010G3/TR01L012-k0 (antibody, V domains shown)
VH: QVQLVQSGAEVKKPGASVKVSCKASGYTFTDYEMHWIRQPPGQGLEWIGAIDGKTPDTAYSQKFKGRVTLTADKSTSTAYMELSSLTSEDTAVYYCTRFYSYTYWGQGTLVTVSS
VL: DIVMTQSPLSLPVTPGEPASISCRSSQSLVHSNRNTYLHWYLQKPGQSPQLLIYKVSNRFRGVPDRFSGSGSGTDFTLKISRVEAEDVGVYYCGQGTQVPYTFGQGTKVEIE
notes: one-arm
B13 showed a Kd of 4.25 nM.

B14: H0610-G1dh/none-Hi-Kn010G3/TR01L019-k0 (antibody, V domains shown)
VH: QVQLVQSGAEVKKPGASVKVSCKASGYTFTDYEMHWIRQPPGQGLEWIGAIDGKTPDTAYSQKFKGRVTLTADKSTSTAYMELSSLTSEDTAVYYCTRFYSYTYWGQGTLVTVSS
VL: DIVMTQSPLSLPVTPGEPASISCQASESPVHSNRNTYLHWYLQKPGQSPQLLIYKVSNRFSGVPDRFSGSGSGTDFTLKISRVEAEDVGVYYCYQGTQVPYTFGQGTKLEIK
notes: one-arm
Consider B14, for which binding was put at a Kd of 1.15 nM.

B15: H0610-G1dh/none-Hi-Kn010G3/TR01L009-k0 (antibody, V domains shown)
VH: QVQLVQSGAEVKKPGASVKVSCKASGYTFTDYEMHWIRQPPGQGLEWIGAIDGKTPDTAYSQKFKGRVTLTADKSTSTAYMELSSLTSEDTAVYYCTRFYSYTYWGQGTLVTVSS
VL: DIVMTQSPLSLPVTPGEPASISCRSSQSLVHSNRNTYLHWYLQKPGQSPQLLIYKVSNRFRGVPDRFSGSGSGTDFTLKISRVEAEDVGVYYCGQGTQVPYTFGQGTKLEIK
notes: one-arm
For B15, the dissociation constant Kd was found to be 3.81 nM.
